± gives the uncertainty stated by the source.

A short description of the series: abundance fitness (aPCA) (normalised: wild type 0, dead -1); higher = more abundant; growth selection in yeast, the domain comes from the species named. The settings on record: Homo sapiens.
Substance “E3 ubiquitin-protein ligase NEDD4-like P193C, Q96PU5” yielded an abundance fitness of 0.042 ± 0.095.

As for “E3 ubiquitin-protein ligase NEDD4-like P193D, Q96PU5”, the abundance fitness was -0.131 ± 0.076.

Consider “E3 ubiquitin-protein ligase NEDD4-like P193E, Q96PU5”, for which the abundance fitness is -0.07 ± 0.087. Turning to “E3 ubiquitin-protein ligase NEDD4-like P193F, Q96PU5”, the abundance fitness is -0.339 ± 0.11. For “E3 ubiquitin-protein ligase NEDD4-like P193G, Q96PU5” the value was -0.086 ± 0.058. For “E3 ubiquitin-protein ligase NEDD4-like P193H, Q96PU5” the value was -0.058 ± 0.11; for “E3 ubiquitin-protein ligase NEDD4-like P193I, Q96PU5”, -0.079 ± 0.052.

As to “E3 ubiquitin-protein ligase NEDD4-like P193K, Q96PU5”, the abundance fitness is -0.033 ± 0.069. For “E3 ubiquitin-protein ligase NEDD4-like P193L, Q96PU5” the value was -0.103 ± 0.055. For the substance “E3 ubiquitin-protein ligase NEDD4-like P193N, Q96PU5”, the abundance fitness is -0.25 ± 0.11.

“E3 ubiquitin-protein ligase NEDD4-like P193Q, Q96PU5”: the abundance fitness was -0.21 ± 0.098. To “E3 ubiquitin-protein ligase NEDD4-like P193R, Q96PU5” belongs 0.025 ± 0.055; to “E3 ubiquitin-protein ligase NEDD4-like P193S, Q96PU5”, -0.042 ± 0.063.

With “E3 ubiquitin-protein ligase NEDD4-like P193T, Q96PU5”, the abundance fitness is -0.177 ± 0.075.

On to “E3 ubiquitin-protein ligase NEDD4-like P193V, Q96PU5”, for which the abundance fitness was -0.003 ± 0.054. On to “E3 ubiquitin-protein ligase NEDD4-like P193W, Q96PU5”, for which the abundance fitness was -0.359 ± 0.067.

For the substance “E3 ubiquitin-protein ligase NEDD4-like P193Y, Q96PU5”, the abundance fitness was -0.057 ± 0.062. For “E3 ubiquitin-protein ligase NEDD4-like P194A, Q96PU5” the value was -0.057 ± 0.066; for “E3 ubiquitin-protein ligase NEDD4-like P194C, Q96PU5”, -0.147 ± 0.076. For “E3 ubiquitin-protein ligase NEDD4-like P194D, Q96PU5” the value was -0.008 ± 0.09; for “E3 ubiquitin-protein ligase NEDD4-like P194E, Q96PU5”, -0.103 ± 0.072; for “E3 ubiquitin-protein ligase NEDD4-like P194F, Q96PU5”, -0.443 ± 0.084. For “E3 ubiquitin-protein ligase NEDD4-like P194G, Q96PU5” the value was -0.05 ± 0.059; for “E3 ubiquitin-protein ligase NEDD4-like P194H, Q96PU5”, -0.094 ± 0.073. Turning to “E3 ubiquitin-protein ligase NEDD4-like P194I, Q96PU5”, the abundance fitness is -0.294 ± 0.1. For “E3 ubiquitin-protein ligase NEDD4-like P194K, Q96PU5” the value was 0.071 ± 0.063; for “E3 ubiquitin-protein ligase NEDD4-like P194L, Q96PU5”, -0.094 ± 0.054; for “E3 ubiquitin-protein ligase NEDD4-like P194M, Q96PU5”, 0.013 ± 0.072. To “E3 ubiquitin-protein ligase NEDD4-like P194N, Q96PU5” belongs -0.304 ± 0.11; to “E3 ubiquitin-protein ligase NEDD4-like P194Q, Q96PU5”, 0.061 ± 0.079. For “E3 ubiquitin-protein ligase NEDD4-like P194R, Q96PU5”, the abundance fitness amounted to 0.048 ± 0.065. To “E3 ubiquitin-protein ligase NEDD4-like P194S, Q96PU5” belongs -0.06 ± 0.065; to “E3 ubiquitin-protein ligase NEDD4-like P194T, Q96PU5”, -0.107 ± 0.07. For the substance “E3 ubiquitin-protein ligase NEDD4-like P194V, Q96PU5”, the abundance fitness is -0.002 ± 0.058. To “E3 ubiquitin-protein ligase NEDD4-like P194W, Q96PU5” belongs -0.327 ± 0.076; to “E3 ubiquitin-protein ligase NEDD4-like P194Y, Q96PU5”, -0.279 ± 0.093. For “E3 ubiquitin-protein ligase NEDD4-like P196A, Q96PU5”, the abundance fitness was -0.01 ± 0.07. Consider “E3 ubiquitin-protein ligase NEDD4-like P196D, Q96PU5”, for which the abundance fitness was -0.231 ± 0.08. To “E3 ubiquitin-protein ligase NEDD4-like P196F, Q96PU5” belongs -0.567 ± 0.098. As to “E3 ubiquitin-protein ligase NEDD4-like P196H, Q96PU5”, the abundance fitness was -0.413 ± 0.097. Consider “E3 ubiquitin-protein ligase NEDD4-like P196K, Q96PU5”, for which the abundance fitness is -0.402 ± 0.11. For “E3 ubiquitin-protein ligase NEDD4-like P196L, Q96PU5” the value was -0.126 ± 0.078; for “E3 ubiquitin-protein ligase NEDD4-like P196M, Q96PU5”, -0.011 ± 0.071; for “E3 ubiquitin-protein ligase NEDD4-like P196N, Q96PU5”, -0.228 ± 0.11. To “E3 ubiquitin-protein ligase NEDD4-like P196Q, Q96PU5” belongs -0.217 ± 0.073; to “E3 ubiquitin-protein ligase NEDD4-like P196R, Q96PU5”, -0.106 ± 0.063; to “E3 ubiquitin-protein ligase NEDD4-like P196S, Q96PU5”, -0.138 ± 0.068. For “E3 ubiquitin-protein ligase NEDD4-like P196T, Q96PU5” the value was -0.239 ± 0.083; for “E3 ubiquitin-protein ligase NEDD4-like P196V, Q96PU5”, -0.184 ± 0.056; for “E3 ubiquitin-protein ligase NEDD4-like P196W, Q96PU5”, -0.416 ± 0.057. Regarding “E3 ubiquitin-protein ligase NEDD4-like P196Y, Q96PU5”, the abundance fitness was -0.384 ± 0.11. For “E3 ubiquitin-protein ligase NEDD4-like P197A, Q96PU5” the value was 0.022 ± 0.071. For “E3 ubiquitin-protein ligase NEDD4-like P197C, Q96PU5” the value was -0.249 ± 0.095; for “E3 ubiquitin-protein ligase NEDD4-like P197D, Q96PU5”, -0.25 ± 0.11; for “E3 ubiquitin-protein ligase NEDD4-like P197E, Q96PU5”, 0.031 ± 0.074. As to “E3 ubiquitin-protein ligase NEDD4-like P197F, Q96PU5”, the abundance fitness was -0.006 ± 0.061. To “E3 ubiquitin-protein ligase NEDD4-like P197H, Q96PU5” belongs -0.097 ± 0.085; to “E3 ubiquitin-protein ligase NEDD4-like P197I, Q96PU5”, 0.18 ± 0.11. With “E3 ubiquitin-protein ligase NEDD4-like P197K, Q96PU5”, the abundance fitness is 0.267 ± 0.094. “E3 ubiquitin-protein ligase NEDD4-like P197L, Q96PU5” registered an abundance fitness of 0.048 ± 0.075. To “E3 ubiquitin-protein ligase NEDD4-like P197M, Q96PU5” belongs 0.006 ± 0.076; to “E3 ubiquitin-protein ligase NEDD4-like P197Q, Q96PU5”, -0.081 ± 0.099. For “E3 ubiquitin-protein ligase NEDD4-like P197R, Q96PU5” the value was 0.093 ± 0.057; for “E3 ubiquitin-protein ligase NEDD4-like P197S, Q96PU5”, 0.073 ± 0.06; for “E3 ubiquitin-protein ligase NEDD4-like P197T, Q96PU5”, -0.017 ± 0.087.

For the substance “E3 ubiquitin-protein ligase NEDD4-like P197V, Q96PU5”, the abundance fitness was -0.009 ± 0.06.

Take “E3 ubiquitin-protein ligase NEDD4-like P197W, Q96PU5”: the abundance fitness is -0.237 ± 0.089. To “E3 ubiquitin-protein ligase NEDD4-like P197Y, Q96PU5” belongs -0.058 ± 0.08; to “E3 ubiquitin-protein ligase NEDD4-like P224A, Q96PU5”, -0.765 ± 0.08. As for “E3 ubiquitin-protein ligase NEDD4-like P224C, Q96PU5”, the abundance fitness was -0.772 ± 0.11. In the case of “E3 ubiquitin-protein ligase NEDD4-like P224D, Q96PU5”, the abundance fitness was -0.772 ± 0.14.

For “E3 ubiquitin-protein ligase NEDD4-like P224E, Q96PU5”, the abundance fitness was -0.612 ± 0.086. For “E3 ubiquitin-protein ligase NEDD4-like P224F, Q96PU5” the value was -1.1 ± 0.21; for “E3 ubiquitin-protein ligase NEDD4-like P224G, Q96PU5”, -0.734 ± 0.065. For “E3 ubiquitin-protein ligase NEDD4-like P224H, Q96PU5” the value was -0.694 ± 0.17; for “E3 ubiquitin-protein ligase NEDD4-like P224I, Q96PU5”, -0.877 ± 0.18. In the case of “E3 ubiquitin-protein ligase NEDD4-like P224K, Q96PU5”, the abundance fitness was -0.552 ± 0.089. For “E3 ubiquitin-protein ligase NEDD4-like P224L, Q96PU5” the value was -0.93 ± 0.06. To “E3 ubiquitin-protein ligase NEDD4-like P224M, Q96PU5” belongs -0.796 ± 0.11; to “E3 ubiquitin-protein ligase NEDD4-like P224N, Q96PU5”, -1.15 ± 0.18. For “E3 ubiquitin-protein ligase NEDD4-like P224R, Q96PU5” the value was -0.94 ± 0.056; for “E3 ubiquitin-protein ligase NEDD4-like P224S, Q96PU5”, -0.711 ± 0.059; for “E3 ubiquitin-protein ligase NEDD4-like P224T, Q96PU5”, -0.828 ± 0.11. In the case of “E3 ubiquitin-protein ligase NEDD4-like P224V, Q96PU5”, the abundance fitness is -1.01 ± 0.086.
